One may read the Kd as the constant that tells how readily two partners part at equilibrium. The low end stands for higher affinity, the high end for lower affinity.

First the molecules themselves.
T1: Nop15 81-180 (Saccharomyces cerevisiae, UniProt P53927 81-180)
T1 sequence: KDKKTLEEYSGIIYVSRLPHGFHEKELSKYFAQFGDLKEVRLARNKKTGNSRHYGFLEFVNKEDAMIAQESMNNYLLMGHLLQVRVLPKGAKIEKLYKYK

T2: Nop15 81-220 (Saccharomyces cerevisiae, UniProt P53927 81-220)
T2 sequence: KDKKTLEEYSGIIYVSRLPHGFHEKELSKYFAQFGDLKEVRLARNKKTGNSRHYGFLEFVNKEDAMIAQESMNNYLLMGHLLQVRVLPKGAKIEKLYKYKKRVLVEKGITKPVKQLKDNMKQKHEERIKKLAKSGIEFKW

T3: Nop15 (Saccharomyces cerevisiae, UniProt P53927 1-220)
T3 sequence: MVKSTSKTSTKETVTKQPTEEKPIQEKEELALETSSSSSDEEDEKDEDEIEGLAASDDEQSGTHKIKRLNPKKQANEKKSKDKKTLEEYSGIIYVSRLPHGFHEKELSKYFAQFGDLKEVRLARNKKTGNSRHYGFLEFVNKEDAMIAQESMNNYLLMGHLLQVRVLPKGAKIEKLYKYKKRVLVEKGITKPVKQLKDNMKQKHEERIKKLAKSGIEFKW

T4: Nop15 81-191 (Saccharomyces cerevisiae, UniProt P53927 81-191)
T4 sequence: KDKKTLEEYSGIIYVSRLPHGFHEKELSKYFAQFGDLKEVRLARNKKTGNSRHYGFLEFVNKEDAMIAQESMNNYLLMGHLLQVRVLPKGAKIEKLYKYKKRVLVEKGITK

The first series addresses T1, Nop15 81-180. Description: fluorescence polarization; 150 mM NaCl; 50 mM HEPES pH 7.5, 150 mM NaCl (250 mM in one row), room temperature, 40 min, 9 nM RNA.
UGAGUGAUACUCUUUGGAGUUAACUUGAAAUUGCU (structured_RNA) [ITS2 26-60 WT] came in with a Kd of 1050 ± 111 nM.

For a further series, the target named is T2, Nop15 81-220. The description is as above.
UGAGUGAUCAACUUUGGUUGUAACUUGAAAUUGCU (structured_RNA) [ITS2 26-60 upper] gave a Kd of 44.9 ± 4.3 nM.
Still for that read-out and setting: then UGAGUCUAACUCUUUGGAGUAUACUUGAAAUUGCU (structured_RNA) [ITS2 26-60 bulge], with 73.6 ± 5.6 nM; and UGAGUGAUACUCUUUGGAGUUAACUU (structured_RNA) [ITS2 26-51], with 104 ± 3.6 nM; and UGAGUGAUACUCUUUGGAGUUAACUUGAAAUUGCU (structured_RNA) [ITS2 26-60 WT], with 35.4 ± 1.3 nM.
Molecule UCUGUGAUACUCUUUGGAGUUAACUUGAAAUUGCU (structured_RNA) [ITS2 26-60 disrupted lower] displayed a dissociation constant (Kd) of 144 ± 16 nM.
UGAGUGAUCAUCUUUGGAGUUAACUUGAAAUUGCU (structured_RNA) [ITS2 26-60 disrupted upper] returned an equilibrium dissociation constant (Kd) of 35.5 ± 3.2 nM.
Take UGACAGAUACUCUUUGGAGUUAUGUUGAAAUUGCU (structured_RNA) [ITS2 26-60 lower1]: binding was put at a Kd of 52.1 ± 3.6 nM.
Molecule UUUGUGAUACUCUUUGGAGUUAACAGGAAAUUGCU (structured_RNA) [ITS2 26-60 lower2] came in with a Kd of 39.3 ± 2.7 nM.
For the molecule UGAGUGAUACUCUUUGGAGUAUCACUUGAAAUUGCU (structured_RNA) [ITS2 26-60 paired], the affinity, expressed as Kd, was 89 ± 8.9 nM.

A further series has as its target T3, Nop15. Described as above.
UGAGUGAUACUCUUUGGAGUUAACUUGAAAUUGCU (structured_RNA) [ITS2 26-60 WT] gave an equilibrium dissociation constant (Kd) of 293 ± 23 nM.

In another series the target is T4, Nop15 81-191. Described as above.
Consider UGAGUGAUACUCUUUGGAGUUAACUUGAAAUUGCU (structured_RNA) [ITS2 26-60 WT], for which the affinity, expressed as Kd, was 209 ± 15 nM.

(Values after article PMC5389651.)
